Results from patent publication US8415393B2, “Anti-bacterial drug targeting of genome maintenance interfaces” (Wisconsin Alumni Research Foundation, priority 2007, dated 2013).
Where no end group is shown, it is not given here. fluorescein = fluorescein moiety attached to the N-terminus of the peptide (N-terminal fluorescein label)

How the values were obtained:
Experiment in all cases: fluorescence anisotropy equilibrium binding (Kd,app), ExoI variant titrated into fluorescein-labeled peptide
ExoI Glu150Ala variant = biological target: T1, ExoI Glu150Ala variant (Escherichia coli, UniProt P04995 1-475)
T1 construct: also called E150A; Glu150 variant
T1 sequence: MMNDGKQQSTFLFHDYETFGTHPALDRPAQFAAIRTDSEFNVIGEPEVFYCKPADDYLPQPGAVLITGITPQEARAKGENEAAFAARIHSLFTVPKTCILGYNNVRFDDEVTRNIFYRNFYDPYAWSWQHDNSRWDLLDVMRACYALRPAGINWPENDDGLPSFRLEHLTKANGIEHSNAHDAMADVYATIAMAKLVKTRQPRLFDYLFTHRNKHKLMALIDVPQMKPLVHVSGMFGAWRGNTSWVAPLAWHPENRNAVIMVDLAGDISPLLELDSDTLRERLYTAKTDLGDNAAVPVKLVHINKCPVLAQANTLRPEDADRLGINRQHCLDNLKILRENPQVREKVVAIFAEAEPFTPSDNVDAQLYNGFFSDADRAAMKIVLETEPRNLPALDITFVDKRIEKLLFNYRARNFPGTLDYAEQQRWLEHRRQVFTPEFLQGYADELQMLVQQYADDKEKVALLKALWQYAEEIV

ExoI Arg327Ala variant = biological target: T2, ExoI Arg327Ala variant (Escherichia coli, UniProt P04995 1-475)
T2 construct: also called R327A
T2 sequence: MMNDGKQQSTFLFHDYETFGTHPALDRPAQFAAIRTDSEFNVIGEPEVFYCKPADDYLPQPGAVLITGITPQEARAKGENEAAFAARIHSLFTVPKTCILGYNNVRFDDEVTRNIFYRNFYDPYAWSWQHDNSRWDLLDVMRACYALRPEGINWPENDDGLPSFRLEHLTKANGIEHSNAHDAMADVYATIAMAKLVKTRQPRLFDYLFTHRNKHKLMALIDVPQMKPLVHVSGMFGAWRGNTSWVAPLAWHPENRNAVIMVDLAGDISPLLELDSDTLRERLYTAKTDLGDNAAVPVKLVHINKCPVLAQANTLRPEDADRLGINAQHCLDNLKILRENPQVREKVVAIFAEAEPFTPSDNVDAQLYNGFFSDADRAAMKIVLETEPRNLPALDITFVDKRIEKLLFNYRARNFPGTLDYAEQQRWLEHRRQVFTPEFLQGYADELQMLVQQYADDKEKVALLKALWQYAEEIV

ExoI Leu331Ala variant = biological target: T3, ExoI Leu331Ala variant (Escherichia coli, UniProt P04995 1-475)
T3 construct: also called L331A
T3 sequence: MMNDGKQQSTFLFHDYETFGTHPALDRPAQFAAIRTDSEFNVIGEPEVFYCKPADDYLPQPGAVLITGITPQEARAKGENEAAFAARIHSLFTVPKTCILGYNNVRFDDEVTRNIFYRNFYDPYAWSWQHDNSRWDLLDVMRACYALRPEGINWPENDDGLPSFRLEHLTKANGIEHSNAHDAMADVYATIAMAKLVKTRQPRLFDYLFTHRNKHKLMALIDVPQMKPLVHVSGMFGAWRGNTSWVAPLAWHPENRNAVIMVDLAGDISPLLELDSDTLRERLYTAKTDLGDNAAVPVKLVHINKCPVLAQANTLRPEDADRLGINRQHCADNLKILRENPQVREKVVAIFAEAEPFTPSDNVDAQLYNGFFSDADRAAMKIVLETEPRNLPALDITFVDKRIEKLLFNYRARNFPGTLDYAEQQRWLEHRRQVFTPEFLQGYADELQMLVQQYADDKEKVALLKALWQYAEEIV

ExoI Lys227Ala variant = biological target: T4, ExoI Lys227Ala variant (Escherichia coli, UniProt P04995 1-475)
T4 construct: basic ridge residue; also called K227A; Lys227 variant
T4 sequence: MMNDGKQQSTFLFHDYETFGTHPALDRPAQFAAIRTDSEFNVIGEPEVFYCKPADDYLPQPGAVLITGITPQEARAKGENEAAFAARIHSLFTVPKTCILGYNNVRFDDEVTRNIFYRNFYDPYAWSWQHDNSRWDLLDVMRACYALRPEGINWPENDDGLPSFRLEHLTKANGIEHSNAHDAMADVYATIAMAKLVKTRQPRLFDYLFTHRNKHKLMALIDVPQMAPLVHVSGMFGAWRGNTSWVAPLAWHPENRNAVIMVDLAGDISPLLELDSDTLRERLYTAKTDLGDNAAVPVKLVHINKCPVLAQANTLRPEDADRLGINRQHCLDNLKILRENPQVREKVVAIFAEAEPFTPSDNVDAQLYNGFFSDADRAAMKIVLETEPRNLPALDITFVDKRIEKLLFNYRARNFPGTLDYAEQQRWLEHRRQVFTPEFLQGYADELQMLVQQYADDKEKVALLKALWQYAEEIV

ExoI Gln448Ala variant = biological target: T5, ExoI Gln448Ala variant (Escherichia coli, UniProt P04995 1-475)
T5 construct: helical domain residue; also called Q448A; Gln448 variant
T5 sequence: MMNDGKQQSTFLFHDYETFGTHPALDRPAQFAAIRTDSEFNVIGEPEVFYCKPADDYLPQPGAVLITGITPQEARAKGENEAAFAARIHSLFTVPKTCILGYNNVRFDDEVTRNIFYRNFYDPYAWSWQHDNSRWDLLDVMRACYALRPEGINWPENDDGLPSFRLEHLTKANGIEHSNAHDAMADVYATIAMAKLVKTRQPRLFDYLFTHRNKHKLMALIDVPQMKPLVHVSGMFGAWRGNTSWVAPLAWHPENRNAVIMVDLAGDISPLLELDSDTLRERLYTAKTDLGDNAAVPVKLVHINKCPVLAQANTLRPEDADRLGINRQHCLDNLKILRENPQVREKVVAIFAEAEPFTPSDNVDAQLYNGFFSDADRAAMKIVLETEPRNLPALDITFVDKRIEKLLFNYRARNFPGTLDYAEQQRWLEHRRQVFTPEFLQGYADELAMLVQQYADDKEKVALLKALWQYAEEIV

How did the Kd (ExoI Glu150Ala variant) turn out when fluorescein-WMDFDDDIPF (also called F-SSB-Ct; F-WT) [fluorescein-labeled SSB C-terminal peptide (fluorescein-WMDFDDDIPF)] was run?
The Kd was 72 nM.

And the Kd (ExoI Arg327Ala variant)?
The Kd was 270 nM.

And the Kd (ExoI Leu331Ala variant)?
Its Kd is 193 nM.

What about the Kd (ExoI Lys227Ala variant) of the same binder?
The Kd was roughly 1000 nM.

What about the Kd (ExoI Gln448Ala variant) of the same binder?
The Kd was 181 nM.
